# In PMC5932250 (Journal of the American Chemical Society, 2018):
# Legend:
# [1] = target: FITC-SgbA(leader) (Streptomyces globisporus subsp. globisporus NRRL B2293); assay: fluorescence polarisation
# [2] = test system: protein tyrosine phosphatase 1B (PTP1B); settings: at 50 μM; ref [48]; cited from earlier work
Kd [1],Substance,inhibition of PTP1B [2]
357 nM,His6-SgbL(kinase 208-548) (domain or fragment),–
351 nM,His6-SgbL(lyase-kinase 1-548) (domain or fragment),–
–,streptocollin,33%
